Experimental findings from article PMC9691602 are described below.

Assay [1] addresses AcrIF24 (P. aeruginosa prophage). Kind of assay: cryo-EM structure.
For assay [2] the target is unchanged. The assay is described as follows: SEC-SAXS.

The term stoichiometry N denotes the number of molecules, sites or subunits per partner or assembly. AcrIF24 (natural protein): the stoichiometry N in assay [1] and in assay [2] was 2 each time.
